This note sets out measurements from the nanobody polyreactivity screen of Harvey et al. (2022).

The data set in a line: yeast display, Sf9 membrane polyspecificity reagent, FACS + sequencing; frameworks hold sequencing errors. The essentials:
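Nanobodies came from a synthetic yeast display library in Saccharomyces cerevisiae BJ5465, induced with galactose for 36–48 hours and stained for 1 hour at 4 °C with 10% biotinylated, detergent-solubilized Sf9 membrane reagent. Cells were enriched on streptavidin microbeads and then FACS-sorted, with low and high (top ~1%) gates set on anti-HA fluorescence for expression and streptavidin fluorescence for reagent binding. Each polyreactivity label reflects the gate a clone came from. Genes were amplified by colony PCR, sequenced by MiSeq 2 × 250 and filtered by CDR length.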
As to “QVQLVESGGGLVQAGGSLRLSCAASGFIFYRYAMGWYRQAPGKERELVAAIRGGGSTYYADSVKGRFTISRDNAKTTVYLQMNSLKPEDTAVYYCNAVYGVRPNRYHYDYWGQGTQVTVSS”, the “polyreactivity (PSR sort gate)” value is reported as “low polyreactivity”.
With “QVQLVESGGGLVQAGGSLLLSCAASGRIFRWNAMGWYRQAPGKERELVAAIRSRGGSTYYADSVKGRFTISRDNAKNTVYLQMNSLKPEDSAVYYCNARIASYRSIYDYWGQGTQVTVSS” the entry was “high polyreactivity”; with “QVQLVESGGGLVQAGGSLRLSCAASGFIFRWNTMGWYRQAPGKERELVAAISSRGGSTYYADSVKGRFKISRDNAKNTVYLQMNSLKPEDTAVYYCNAVRGDEYWGQGTQVTVSS”, “high polyreactivity”; with “QVQLVESGGPLVKSRGSLRLICAASGRTYCEYSMGWYRQAPGKERELVADITNGSRTYYADSVKGRFTISRDNAKNTVYLQMNSLKPEDTSVYYCAADWWKEVDYWGQGTEVTVSS”, “low polyreactivity”.
The value for “QVQLVESGGGLVQAGGSLRLSCAASGRTFNRYVMGWYRQAPGNERELVAALTSSGRTNYADSVKGRFTLSRDNAKNTVYLQMNSLKPEDTAVYYCAKGLYRRYYRVWWLRGDYWGQGTQVTVSS” was “high polyreactivity”; that for “QVNLVESGGGLVQAGGSLRLRCAASGSIYISYAMGWYRQAPGKERELVATIRSSGGRTHYSDSVKGRFTISRDNAKNTVYLQMNSLKPEDTPVYYCHYGVYQYPQDYDYWGEGTQVTVSS” was “low polyreactivity”.
The value for “QVQLVESGGGLVQAGGSLRLSCAASGSISSVNAMGWYREAPGKERELVATISSGGSTYADSVKGRFTISRDNAKNTVYLQMNSLKPEDTAVYYCATYFVAYTFYYRWYRSYASFYYWGQGTQVTVSS” was “low polyreactivity”.
Turning to “QVQLVESGGGLVQAGGSLRLSCAASGRIFYSNAMGWYRQAPGKERELVAAITWRGGSTYYADSVKGRFTISRDNAKNTVYLQMNSLKPEDTAVYYCATDGYDDTHYYYWGQGTQVTVSS”, the “polyreactivity (PSR sort gate)” value is “low polyreactivity”.
With “QVQLVESGGGLVQAGGSLRLSCAASGRTFGWYAMGWYRQAPGKERELVAAINNSGDITYYADSVKGRFTISRDNAKNTVYLQMNSLKPEDTAVYYCAKSLPHSTSRDYWGQGTQVTVSS” the entry was “low polyreactivity”.
With “QVQLVESGGGLVQAGGSLRLSCAASGRTFPFYAMGWYRQAPGKERELVADITSSGGSTYYADSVKGRFTISRDNAKNTVYLQINSLKPEDTAVYYCNKRPWTRFDSGQGTQVTVSS” the entry was “low polyreactivity”; with “QVHLVESGGGLVQAGGSLRLSCAASGLTFSSYSMGWYRQAPAKERELVATITSSGGDNTNYADSVKGRFTISRDNAKNTVYLQMNSLKPEDTAVYYFNKEGQQSYRWRMDYWGQGTQVTVSS”, “low polyreactivity”; with “QVQLVESGGGLVQAGGSLRISCAASGRTFYWYAMGWYRQAPGKERELVAAISAGGGRTYCADSVKGRFTISRDNAKNTVYLQMNSLKPEDTAVYYCAADFQRGAKYTYDFWGQGTQVTVSS”, “high polyreactivity”.
For the sequence “QVQLVESGGCLVQAGGSLRLSCAASGSTFGGNAMGWYRQAPGKERELVAAISTSGGSTYYADSVKGRFTISRDNAKNTVYLQMNSLKPEDTAVYYCNAVRIGGAPRSRFYDWGQCTQVTVSS”, the “polyreactivity (PSR sort gate)” value is on record as “high polyreactivity”.
The value for “QVQLVESGGGLVQAGGSLRVSCAASGRTFPYYDMGWYRQAPGKEREFVAAITWRGGSTYYADSVKGRFTISRDNAKNTVYLQMNSLKPEDSAVYYCATDSLRLYGGKRDLYYWGQGTQVTVSS” was “low polyreactivity”; that for “QVQLVESGGGLVQAGGSLRLSCAASGSIVVGYAMGWYRQAPGKERELVAAITGSGTRTYYADSVKGRFTISRDNAKNTVYLQMNSLKPEDTAVYYCAAPLSYKNVKYDYWGQGTQVTVSS” was “low polyreactivity”; that for “QVQLVESGGGLFQAGGSLSLSCAASGRNLSGYDMGWYRQAQGKERELVAAITRGGTTYYADSVKGRFTISRDNSKNTVYLQMNSLKADDTAVVYTVSYAQYDYWGQGTQVTVSS” was “low polyreactivity”.
With “QVQLVESGGGLVQAGGSLRLSCAASGFTFWYYAMGWYRQAPGKERELVASISASGGRTNYADSVKGRFTISRDNAKNTVYLQMNSLKPEDTAVYYCAACRVRYSYGYPYYYWGQGTQVTVSS” the entry was “high polyreactivity”.
Take “QVQLVESGGGLFQAGGSLRLSCAASGFIFGLYAMGWYRQAPGKEREFVAAISTSSGITYYADSVKGRFTISRDNAKNTVYLQMNSLKPEDTAVYDCAARGHYYDYWRQGTQVTVSS”: the “polyreactivity (PSR sort gate)” value was “low polyreactivity”.
For “QVQLVESGGGLVQAGGSLRLSCAAYGITFSGYDMGWYRQAPGKERELVADITISTGSTYYADSVKGRFTISRDNAKNTVYLEMNSLKAEDTAVYYWNADSWFPDHFSYYGPYDYWGQGSQVTVSS”, the “polyreactivity (PSR sort gate)” value is “low polyreactivity”.
In the case of “QVQLVESGGGLVQAGGSLRLSCAASGIIFYGYAMGWYRQAPGKERELVAAISSGGGTNYADSVKGRFTISRDNAKNTVYLQMNSLKPEDTAVYYCAAGGKKRDDYWGQGTQVTVSS”, the “polyreactivity (PSR sort gate)” value was “high polyreactivity”.
With “QVQLVESGGGLVQAGGSLRLSCAASGSTFYFYDMGWYRQAPGKERELVATIDDGGGSTYYADSVKGRFTISRDNAKNTVYLQMNSLKPEDTAVYYCAADYFVYPDDWYDYWGQGTQVTVSS” the entry was “low polyreactivity”; with “QVQLVETGGGLVQAGGSLRLSCAATGLNFWLYAMAWYRQAPGKEREFVAVISWSGGTTYYADSVKGLFTISRDYAKNTVYLTMTTLIPEDTAVYFCAAQVCYYTNYREFDYWGQGTQVTVSS”, “low polyreactivity”.
As for “QVQLVESGGGLVQAGGSLRLSCAASGRTLYKYAMGWYRQAPGKERELVATISSGGRTNYADSVKGRFTISRDNAKNPVYLQMNSLKPEDTAVYYCAADVVRYYYTYDYWGQGTQVTVSS”, the “polyreactivity (PSR sort gate)” value is given as “low polyreactivity”.
With “QVQLEESGGGLVQAGGSLRLSCAASGSIFGANAMAWYRQAPGKERDLVAAITTSGGSTFYADSVKGRFTISRDNAKNTVYLQMNCLKPEDNAVYYCAAEWVYSIKSVYIYEMYYWGQGTQVTVSS”, the “polyreactivity (PSR sort gate)” value was “low polyreactivity”.
Turning to “QVQLVESGGGVVQAGGSLRLRCAASGRTFGQNVMGWYRQAPGKERELVAAISWSGARTYYADSVKGRFTISRDNVKNTVYLQMNSLNPEDTAVYYCNAPPYAYYGMYYWGQGTQVTVSS”, the “polyreactivity (PSR sort gate)” value was “high polyreactivity”.
The value for “QVQLVESGGGLVQAGGSLRLSCAASGRTCGSNVMGWYRQAPGKERELVAAISRSGGSTHYADSVKGRFTISRDKAKNSVYLQMKSLNPEDTAVYYCAARYSGGSAYGYGSLGQGTQVTVSS” was “high polyreactivity”; that for “QVQLVESGGGLVQAGGSLRISCAASGSTITWYTMGWYRQAPGKERELVATIRKRGGSTYYADSVKGRFTISRDNAKNTVYLQMNSLKPEDTAVYYCNDTRLIYRFNPEEAGSTIPYDYWGQGTQVTVSS” was “high polyreactivity”; that for “QVQLVESGGGLVQAGGSLRLSCAASGFTISPYAMGWYRQAPGKERELVAAITRRSGSTYDADSVKGRFTISRDNAKNTVYLQMNSLKPEDTAVYYCNAKFYTAVYSYSLFNYWGQGTQVTVSS” was “high polyreactivity”.
With “QVQLVESGGGLVQAGGSLRLSCAASGSIFSGYTMGWYRQAPGKERELVATISSSGGRTRYADSVKGRFTISRDNAKNTVYLQMNSLKPEDTAVYYCAAAYYVKYNSEYEYWGQGTQVTVSS” the entry was “high polyreactivity”; with “QVQLVESGGGLVQAGGSLRLSCAASGSIFDYYGMGWYRQAPGKEGELVATISQGGDSSYYADSVKGRFTISRDNAKNTVYLQMNSLKPEDTAVYYCAALVPIYRWYKLYYWGQGTQVTLSS”, “low polyreactivity”; with “QVQLVESGGGLVQAGGSLRLSCAASGFIISGNAMGWYRQAPGKERELVASISRSGGSTYYADSVKGRFTISRDNAKNTVYLQMNSLKPEDTAVYYCNARYYAIGQFNYWGQGTQVTVSS”, “low polyreactivity”.
With “QVQLVESGGGLVQAGGSLRLSCADSGRIFVYYAMGWYRQAPGKERELVASISYSGASTYYADSVKGRFTISRDNAKNTVYLQMNSLKPEDTAVYYCARDVWNYWDGVFQYYSYDFDYWGQGTQVTVSS” the entry was “low polyreactivity”; with “QVQLVESGGGLLHAGGSLRLSCAASGRTFYSNAMGWYRQAPGKERELVASISSRGSTNYADSVKGRFTISRDNAKNTVYLEMNSLKPEDTAVYYCAKRTHQFGVSRSYNTYYYWGHGTQVTVSS”, “low polyreactivity”.
In the case of “QVQLVESGGGLVQAGGSLRLSCAASGFTFRYYAMGWYRQAPGKEREFVAAIRWRGATTYYADSVKGRFTISRDNAKNTVLLQMNSLKPEDTAVYYCAARYVYNSDRVSERDYWGQGTQVTVSS”, the “polyreactivity (PSR sort gate)” value is recorded as “high polyreactivity”.
With “QVQLVESGGRLVQAGGSLRLSCAASGLTFGRYAMGWYSQAPGKERELVASISQRGGSSYYADSVKGRFTISRDNAKNTVFLQMNSLKPEDTAVYYCNARVRDIYRYSMDSWGQGTQVTVSS” the entry was “low polyreactivity”.
As to “QVQLVESGGGLVQAGGSLRLSCAASGSTFVLNAMGWYRQAPGKERELVAAITGSGSTKYADSVKGLFTISRDNAKNTVYLQMNSLKPEDTAVYYCATAAVYPIPFGYWGQGTQVTVSS”, the “polyreactivity (PSR sort gate)” value is listed as “low polyreactivity”.
The value for “QVQLVESGVGLVQAGRSLRLSCAASGFTFGAYAMGWYRQAPGKERELVAAITRRGGSTYYADSVKGRFTISRDNAKNTVYLQMNSLKPEDTAVYYCAARRGRVLTKVSGYYSWGQGTQVTVSS” was “high polyreactivity”.
With “QGQLVESGGRLVQAGGSLRLSCAASGFTFDSYAMAWYRQAPGKERELVASISSSGSTNYADSVKGRFTISRDNAKNTVYLQMNSLKPEDTAVYYCAAVSRYPFIYEYWGQGTQVTVSS” the entry was “low polyreactivity”; with “QVQLVESGGGLVQAGGSLRLSCAASGSIFPHNAMGWYRQAPGTERELVASITSRGGITYYADSVKGRFTISRDNAKNTVYLQMNSLKPEDTAVYYCAADLYIYPYDYWGQGTQVTVSS”, “low polyreactivity”; with “QVQLVESGGGLLQAGGSLRLSCAASGRIFSTNAMGWYRQAPGKERELVAAITNGGNTNYADSVKGRFTISRDNAKITVYLQMNSLKQEDTAVYYCAKAVAYSWVDGYGYEYWGQGTQVTVSS”, “low polyreactivity”.
On to “QVQLVESGGGLVQAGGSLRLSCAASGSILSYNTMGWYRQAPGKEREFVAGITYSGSRTYYADSVKGRFTISRDNAKNPVYLQMNSLKPEDTAVYYCAAQYWQGDYDYWGQGTQVTVSS”, for which the “polyreactivity (PSR sort gate)” value is “high polyreactivity”.
